The values that follow come from patent publication US20030212253A1 (AMERICAN NATIONAL RED CROSS, published 2003).

Non-standard residues stand in square brackets, D forms with d. No end group written: not given here. 2Nal = N[C@@H](Cc1ccc2ccccc2c1)C(=O)O; Ahx = NCCCCCC(=O)O

Test [1] concerns the target fibrinogen (human plasma) (human) (UniProt P02671). Put plainly: affinity chromatography of 5 ml plasma on 0.8 ml peptide resin column.
The target of the next test is T1, albumin (human plasma) (human, UniProt P02768 25-609).
T1 construct: mature
Nature of the test: affinity chromatography of fibrinogen- and Apo-A1-depleted plasma on peptide resin, 0.020 M sodium citrate; nephelometry. As to the method:
Fibrinogen and Apo-A1 lipoprotein-depleted plasma (prepared in Example 5) was loaded at a linear velocity of 30 cm/hour (0.4 ml/min; RT=5.1) onto 2.0 ml column (CF=0.785 cm²) that had been equilibrated with 0.14 M NaCl, 0.020 M sodium citrate, pH 7.0 (EQ buffer). After the column was washed with EQ buffer and 2.0 M NaCl, 0.020 M sodium citrate, pH 6.0, to baseline, the API protein was eluted with 2.0 M NaCl, 1% Tween 20, 0.020 M sodium citrate, pH 6.0. The column was regenerated with 2.0 M guanidine-HCl, 2% Sarkosyl and 2% acetic acid and stored in 20% methanol. […] Not all of the API was quantitatively eluted, but could be eluted using 2M guanidine. Purification of API protein to approximately 70% purity was accomplished with ligand HFVAPH (SEQ ID NO: 46) (isolated from an L-Library).

Test [2] concerns the target fibrinogen (human plasma) (human) (UniProt P02671). Put plainly: affinity chromatography of plasma on peptide resin, ligand density 0.67-0.94 mmol/g resin.
Test [3] has the same target. Nature of the test: affinity chromatography of plasma on peptide resin, Evaluation 1; nephelometric fibrinogen antigen.
For test [4] the target is unchanged. Nature of the test: affinity chromatography of plasma on peptide resin, Evaluation 2; nephelometric fibrinogen antigen.
For test [5] the target is unchanged. Put plainly: affinity chromatography of plasma on peptide resin, Evaluation 1, load 51 mg; nephelometric fibrinogen antigen.
The target is the same in test [6]. Nature of the test: affinity chromatography of plasma on peptide resin, Evaluation 2, load 51 mg; nephelometric fibrinogen antigen.
Test [7] concerns the target vWF/fVIII complex (human plasma) (human) (UniProt P04275). Put plainly: batch binding of pooled human plasma to peptide resin, then column elution; fVIII chromogenic assay.
Test [8] has the same target. Nature of the test: batch binding of pooled human plasma to peptide resin, then column elution; fVIII coagulation assay.
The target is the same in test [9]. Nature of the test: batch binding of pooled human plasma to peptide resin, then column elution; load 8.46 IU; fVIII coagulation assay.
Test [10] shares this target. Put plainly: batch binding of 20 ml pooled human plasma to 0.8 ml peptide resin, then column elution; load 21.4 IU; fVIII chromogenic assay.

The molecule “HWQ (SEQ ID NO: 7) peptide attached to a chromatography resin” yielded a dynamic resin capacity in test [1] of 5 to 8 mg.
As for HFVAPH (also: immobilised on resin via C-terminus, Immobilised on chromatography resin) [L-HFVAPH (SEQ ID NO: 46) peptide ligand displayed on resin], the binding result in the test with albumin (human plasma) is listed as “no binding”.
On to [dA]RQFDF[Ahx] (also: D- prefix in name, which residues are D is not settled) [D-ARQFDF (SEQ ID NO: 20) peptide displayed on ToyoPearl AF-Amino 650 M resin], for which the dynamic resin capacity in test [2] was 6 to 8 g/L of resin. The fibrinogen in flow thru + post wash in [3] and in [4] was less than 0.15 mg/mL in each case. Further, the recovery of fibrinogen in elution (%) in test [3] was determined as 91%; in [4], 100%. Moreover, the total fibrinogen in elution came to 46 mg in test [5] and 54 mg in [6].
Take EAD[2Nal]ED (not fully specified (C-terminus)) [D-EADna2′ED (SEQ ID NO: 66) resin]: in test [7], the FVIII recovery in elution 1, 0.75 M NaCl (%), chromogenic assay was 21.5%; the FVIII recovery in elution 2, 1.0 M NaCl (%), chromogenic assay amounted to 0%; the FVIII recovery in flow-through (%), chromogenic assay came out at 7.5%; the FVIII recovery in wash, 0.5 M NaCl (%), chromogenic assay amounted to 5.6%. In [7], this molecule gave a total FVIII in elution 1, 0.75 M NaCl (IU), chromogenic assay of 4.6 IU; a total FVIII in elution 2, 1.0 M NaCl (IU), chromogenic assay of 0 IU; a total FVIII in wash, 0.5 M NaCl (IU), chromogenic assay of 1.2 IU. In test [8], the FVIII recovery in elution 1, 0.75 M NaCl (%), coagulation assay came to 46%; the FVIII recovery in elution 2, 1.0 M NaCl (%), coagulation assay is 0%; the FVIII recovery in flow-through (%), coagulation assay was found to be 18.9%; the FVIII recovery in wash, 0.5 M NaCl (%), coagulation assay was 0%. In test [8], this molecule gave a total FVIII in elution 1, 0.75 M NaCl (IU), coagulation assay of 3.9 IU; a total FVIII in elution 2, 1.0 M NaCl (IU), coagulation assay of 0 IU; a total FVIII in wash, 0.5 M NaCl (IU), coagulation assay of 0 IU. This molecule also returned a total FVIII in flow-through (IU), coagulation assay in test [9] of 1.6 IU. The total FVIII in flow-through (IU), chromogenic assay in test [10] was determined as 1.6 IU.
